# Laboratory results published in patent US20200283521A1 (GRANULAR THERAPEUTICS, published 2020).
# Where a chain is given by its changes, count along the chain named.
# B1: MH5.32 (antibody, IgG1, V domains shown)
# VH: QVQLVQSGAEVKKPGASVKVSCKASGYTFTNYYMNWVRQAPGQGLEWMGRIYPGAGNTYYAQKFQGRVTMTRDTSTSTVYMELSSLRSEDTAVYYCARGVWYFDEWGQGTLVTVSS
# VL: DIQMTQSPSSLSASVGDRVTITCRASQGIRTNLAWFQQKPGKAPKSLIYAASSLQSGVPSRFSGSGSGTDFTLTISSLQPEDFATYYCQQYANYPRTFGGGTKVEIK
# notes: IgG1
# B2: MH5.27 (antibody, IgG1, V domains shown)
# VH: B1 VH with A55T, E105T
# VL: B1 VL
# notes: IgG1
# B3: MH5.29 (antibody, IgG1, V domains shown)
# VH: B1 VH with F103Y, E105Y
# VL: B1 VL
# notes: IgG1
# B4: MH6 (antibody, IgG1, V domains shown)
# VH: B1 VH with N31D, A55S, W101Y, F103Y, E105Y
# VL: B1 VL with A50S, A92N, N93S, R96K
# notes: IgG1
# B5: TTP2 (antibody, IgG1, V domains shown)
# VH: B1 VH with N31D, A55S, W101Y, F103Y, E105Y
# VL: B1 VL with A92N, N93S, R96H
# notes: IgG1
# B6: MH5.36 (antibody, IgG1, V domains shown)
# VH: B1 VH with G54A, A55S
# VL: B1 VL
# notes: IgG1
# B7: MH5.31 (antibody, IgG1, V domains shown)
# VH: B1 VH with E105T
# VL: B1 VL
# notes: IgG1
# B8: TTP3 (antibody, IgG1, V domains shown)
# VH: B1 VH with N31D, A55S, W101Y, F103L, E105Y
# VL: B1 VL with I29V, A50S, A92N, N93A, R96K
# notes: IgG1
# B9: TTP6 (antibody, IgG1, V domains shown)
# VH: B1 VH with N31D, A55S, W101Y, F103Y, E105Y
# VL: B1 VL with I29V, A92N, N93A, R96H
# notes: IgG1
# B10: TTP4 (antibody, IgG1, V domains shown)
# VH: B1 VH with N31D, A55S, W101Y, F103Y, E105Y
# VL: B1 VL with I29V, A50S, A92N, N93A, R96H
# notes: IgG1
# B11: MH5.26 (antibody, IgG1, V domains shown)
# VH: B1 VH with A55T, E105S
# VL: B1 VL
# notes: IgG1
# B12: MH5.30 (antibody, IgG1, V domains shown)
# VH: B1 VH with E105S
# VL: B1 VL
# notes: IgG1
# B13: MH5.28 (antibody, IgG1, V domains shown)
# VH: B1 VH with A55T
# VL: B1 VL
# notes: IgG1
# B14: MH5.24 (antibody, IgG1, V domains shown)
# VH: B1 VH with N31D, Y32F, G54A, A55S, E105T
# VL: B1 VL
# notes: IgG1; also called C-KIT-MH5.24
# B15: MH5.35 (antibody, IgG1, V domains shown)
# VH: B1 VH with G54A, A55S, E105T
# VL: B1 VL
# notes: IgG1; also called C-KIT-MH5.35
# B16: MH5.2 (antibody, IgG1, V domains shown)
# VH: B1 VH with N31D, Y32F, A55T, F103Y, E105Y
# VL: B1 VL
# notes: IgG1; also called C-KIT-MH5.2
# B17: MH5.34 (antibody, IgG1, V domains shown)
# VH: B1 VH with G54A, A55S, E105S
# VL: B1 VL
# notes: IgG1; also called C-KIT-MH5.34
# B18: MH5.1 (antibody, IgG1, V domains shown)
# VH: B1 VH with A55T, F103Y, E105Y
# VL: B1 VL
# notes: IgG1; also called C-KIT-MH5.1
# B19: MH10 (antibody, IgG1, V domains shown)
# VH: B1 VH with N31D, A55S, W101Y, F103Y, E105Y
# VL: B1 VL with A50S, A92T, N93S
# notes: IgG1
# B20: MH8 (antibody, IgG1, V domains shown)
# VH: B1 VH with N31D, A55S, W101Y, F103Y, E105Y
# VL: B1 VL with A50S, A92S, N93S
# notes: IgG1
# B21: MH13 (antibody, IgG1, V domains shown)
# VH: B1 VH with N31D, A55S, W101Y, F103Y, E105Y
# VL: B1 VL with I29V, A92N, N93A
# notes: IgG1
# B22: MH12 (antibody, IgG1, V domains shown)
# VH: B1 VH with N31D, A55S, W101Y, F103Y, E105Y
# VL: B1 VL with I29V, A92N, N93S
# notes: IgG1
# B23: F-C5 (antibody, IgG1, V domains shown)
# VH: B1 VH with N31D, A55S, W101Y
# VL: B1 VL with I29V, L54R, A92N, N93S
# notes: IgG1; also called C-KIT-F-C5; F-05
# B24: C-B12 (antibody, IgG1, V domains shown)
# VH: B1 VH with N31D, A55S, W101Y, Y102E, E105Y
# VL: B1 VL with I29V, T31N, S53Y, L54R, A92N, N93S
# notes: IgG1; also called C-KIT-C-B12
# B25: C-A7 (antibody, IgG1, V domains shown)
# VH: B1 VH with N31D, M48I, A55S, W101Y, E105S
# VL: B1 VL with I29V, T31N, L33V, A50Y, A92N, N93S
# notes: IgG1; also called C-KIT-C-A7
# B26: D-A10 (antibody, IgG1, V domains shown)
# VH: B1 VH with N31D, A55S, W101Y, E105T
# VL: B1 VL with I29V, L54R, A92N, N93S
# notes: IgG1; also called C-KIT-D-A10
# B27: E-E10 (antibody, IgG1, V domains shown)
# VH: B1 VH with N31D, A55S, E105Y
# VL: B1 VL with I29V, L33V, A50S, A92N, N93S
# notes: IgG1; also called C-KIT-E-E10
# B28: MH11 (antibody, IgG1, V domains shown)
# VH: B1 VH with N31D, A55S, W101Y, F103Y, E105Y
# VL: B1 VL with A92N, N93A
# notes: IgG1; also called C-KIT-MH11
# B29: F-F2 (antibody, IgG1, V domains shown)
# VH: B1 VH with N31D, A55S, W101Y, F103Q, E105Y
# VL: B1 VL with I29V, L33V, L54R, A92N, N93S
# notes: IgG1; also called C-KIT-F-F2
# B30: MH5.23 (antibody, IgG1, V domains shown)
# VH: B1 VH with N31D, Y32F, G54A, A55S, E105S
# VL: B1 VL
# notes: IgG1; also called C-KIT-MH5.23
# B31: MH5.6 (antibody, IgG1, V domains shown)
# VH: B1 VH with N31D, Y32H, A55T
# VL: B1 VL
# notes: IgG1
# B32: MH5.4 (antibody, IgG1, V domains shown)
# VH: B1 VH with N31D, Y32H, A55T, E105S
# VL: B1 VL
# notes: IgG1
# B33: MH5.10 (antibody, IgG1, V domains shown)
# VH: B1 VH with N31D, Y32H
# VL: B1 VL
# notes: IgG1
# B34: MH5.15 (antibody, IgG1, V domains shown)
# VH: B1 VH with N31D, Y32F, A55T, E105S
# VL: B1 VL
# notes: IgG1
# Biological target: T1, human C-KIT-Fc (human, UniProt P10721 26-524)
# T1 construct: also called biotinylated human C-KIT-Fc; not shown: Fc part not described
# Test: direct ELISA;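 further: Plate-coated C-KIT-Fc (1 µg/ml) probed with antibodies for 1 hr, bound IgG detected via anti-human kappa-HRP and TMB, absorbance measured at 450 nm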
row,binding result,Binder
1,binds,B1
2,binds,B2
3,binds,B3
4,binds,B4
5,binds,B5
6,binds,B6
7,binds,B7
8,binds,B8
9,binds,B9
10,binds,B10
11,binds,B11
12,binds,B12
13,binds,B13

# Biological target: T2, cynomolgus monkey C-KIT, full length, on CHO-K1 cells (cynomolgus monkey)
# T2 construct: whole, on cells; also called cyno C-KIT+ CHO-K1 cells
# Test: flow cytometry, C-KIT-transfected CHO-K1 cells, IgG1 format
row,EC50 (read off the curve),Binder
1,~0.2 µg/mL,B14
2,~0.2 µg/mL,B15
3,~0.2 µg/mL,B16
4,~0.2 µg/mL,B17
5,~0.2 µg/mL,B18

# Biological target: T3, human C-KIT, full length, on cells (human, UniProt P10721 26-976)
# T3 construct: full-length cDNA stably transfected in CHO-K1; also used here for endogenous C-KIT of TF-1 cells; also called human C-KIT+ CHO-K1 cells; C-KIT on TF-1 cells
# Test: as above
row,binding result,Binder
1,binds,B19
2,binds,B20
3,binds,B4
4,binds,B5
5,binds,B21
6,binds,B8
7,binds,B22
8,binds,B9
9,binds,B10

# Biological target: T4, cynomolgus monkey C-KIT-Fc (cynomolgus monkey)
# T4 construct: also called cyno C-KIT-Fc
# Test: HTRF competition vs Tb-h37M IgG1
row,IC50,Binder
1,0.079 µg/mL,B23
2,0.166 µg/mL,B24
3,0.081 µg/mL,B25
4,0.059 µg/mL,B26
5,0.097 µg/mL,B27
6,0.101 µg/mL,B28
7,0.121 µg/mL,B29

# Biological target: T1, human C-KIT-Fc
# Test: HTRF competition vs Tb-h37M IgG1
row,IC50,Binder
1,0.031 µg/mL,B23
2,0.066 µg/mL,B24
3,0.037 µg/mL,B25
4,0.027 µg/mL,B26
5,0.031 µg/mL,B27
6,0.051 µg/mL,B28
7,0.046 µg/mL,B29

# Biological target: T3, human C-KIT, full length, on cells
# Test: flow cytometry, C-KIT-transfected CHO-K1 cells, IgG1 format
# Remark: another data set of the same source
row,EC50 (read off the curve),Binder
1,~0.2 µg/mL,B14
2,~0.1 µg/mL,B15
3,~0.2 µg/mL,B30
4,~0.2 µg/mL,B16
5,~0.2 µg/mL,B17
6,~0.2 µg/mL,B18

# Biological target: T4, cynomolgus monkey C-KIT-Fc
# Test: HTRF competition vs Tb-h37M IgG1
# Remark: another data set of the same source
row,IC50,Binder
1,2.74 µg/mL,B14
2,0.785 µg/mL,B15
3,3.26 µg/mL,B30
4,0.254 µg/mL,B16
5,0.532 µg/mL,B17
6,0.633 µg/mL,B18

# Biological target: T1, human C-KIT-Fc
# Test: HTRF competition vs Tb-h37M IgG1
# Remark: another data set of the same source
row,IC50,Binder
1,2.2 µg/mL,B14
2,2.05 µg/mL,B15
3,2.02 µg/mL,B30
4,0.272 µg/mL,B16
5,0.839 µg/mL,B17
6,0.684 µg/mL,B18

# Biological target: T1, human C-KIT-Fc
# Test: direct titration ELISA on coated C-KIT-Fc, IgG1 format
row,binding result,Binder
1,binds,B31
2,binds,B32
3,binds,B33
4,binds,B34

# Biological target: T1, human C-KIT-Fc
# Test: HTRF competition on human C-KIT-Fc against terbium-labelled h37M IgG1
row,binding result,Binder
1,binds,B19
2,binds,B20
3,binds,B21
4,binds,B22
